Experimental data reported in paper PMC12416549 (2024).

Target: T1, TNFR1 (Homo sapiens, UniProt P19438)
T1 chain: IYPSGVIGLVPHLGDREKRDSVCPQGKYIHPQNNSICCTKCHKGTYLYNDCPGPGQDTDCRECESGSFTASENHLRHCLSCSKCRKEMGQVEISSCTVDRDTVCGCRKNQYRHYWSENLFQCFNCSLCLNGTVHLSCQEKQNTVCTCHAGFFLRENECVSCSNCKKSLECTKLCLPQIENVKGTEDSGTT
Assay: yeast display SC50

Binder	apparent Kd (screen) [pM]
K8F (designed binder) SMEEEVEFAAKEYEKKKKEAIEKHLEKLKAKDKEAAERFLKELEEAAKEYAKDEAKTMSEEEAKRRAKKYKEKVLLSELSEEEQKEIKEAEEKLVRTILKYVEEAAK	539
A30P (designed binder) SMEEEVEKAAKEYEKKKKEAIEKHLEKLKPKDKEAAERFLKELEEAAKEYAKDEAKTMSEEEAKRRAKKYKEKVLLSELSEEEQKEIKEAEEKLVRTILKYVEEAAK	11400
E104P (designed binder) SMEEEVEKAAKEYEKKKKEAIEKHLEKLKAKDKEAAERFLKELEEAAKEYAKDEAKTMSEEEAKRRAKKYKEKVLLSELSEEEQKEIKEAEEKLVRTILKYVEPAAK	446
E104V (designed binder) SMEEEVEKAAKEYEKKKKEAIEKHLEKLKAKDKEAAERFLKELEEAAKEYAKDEAKTMSEEEAKRRAKKYKEKVLLSELSEEEQKEIKEAEEKLVRTILKYVEVAAK	446
K17T (designed binder) SMEEEVEKAAKEYEKKTKEAIEKHLEKLKAKDKEAAERFLKELEEAAKEYAKDEAKTMSEEEAKRRAKKYKEKVLLSELSEEEQKEIKEAEEKLVRTILKYVEEAAK	1050
L79C (designed binder) SMEEEVEKAAKEYEKKKKEAIEKHLEKLKAKDKEAAERFLKELEEAAKEYAKDEAKTMSEEEAKRRAKKYKEKVLLSECSEEEQKEIKEAEEKLVRTILKYVEEAAK	1860
L25T (designed binder) SMEEEVEKAAKEYEKKKKEAIEKHTEKLKAKDKEAAERFLKELEEAAKEYAKDEAKTMSEEEAKRRAKKYKEKVLLSELSEEEQKEIKEAEEKLVRTILKYVEEAAK	1860
A9T (designed binder) SMEEEVEKTAKEYEKKKKEAIEKHLEKLKAKDKEAAERFLKELEEAAKEYAKDEAKTMSEEEAKRRAKKYKEKVLLSELSEEEQKEIKEAEEKLVRTILKYVEEAAK	446
D53Y (designed binder) SMEEEVEKAAKEYEKKKKEAIEKHLEKLKAKDKEAAERFLKELEEAAKEYAKYEAKTMSEEEAKRRAKKYKEKVLLSELSEEEQKEIKEAEEKLVRTILKYVEEAAK	2730
K52G (designed binder) SMEEEVEKAAKEYEKKKKEAIEKHLEKLKAKDKEAAERFLKELEEAAKEYAGDEAKTMSEEEAKRRAKKYKEKVLLSELSEEEQKEIKEAEEKLVRTILKYVEEAAK	869
H24Q (designed binder) SMEEEVEKAAKEYEKKKKEAIEKQLEKLKAKDKEAAERFLKELEEAAKEYAKDEAKTMSEEEAKRRAKKYKEKVLLSELSEEEQKEIKEAEEKLVRTILKYVEEAAK	790
A105N (designed binder) SMEEEVEKAAKEYEKKKKEAIEKHLEKLKAKDKEAAERFLKELEEAAKEYAKDEAKTMSEEEAKRRAKKYKEKVLLSELSEEEQKEIKEAEEKLVRTILKYVEENAK	1860
E81W (designed binder) SMEEEVEKAAKEYEKKKKEAIEKHLEKLKAKDKEAAERFLKELEEAAKEYAKDEAKTMSEEEAKRRAKKYKEKVLLSELSWEEQKEIKEAEEKLVRTILKYVEEAAK	304
L28H (designed binder) SMEEEVEKAAKEYEKKKKEAIEKHLEKHKAKDKEAAERFLKELEEAAKEYAKDEAKTMSEEEAKRRAKKYKEKVLLSELSEEEQKEIKEAEEKLVRTILKYVEEAAK	790
S59W (designed binder) SMEEEVEKAAKEYEKKKKEAIEKHLEKLKAKDKEAAERFLKELEEAAKEYAKDEAKTMWEEEAKRRAKKYKEKVLLSELSEEEQKEIKEAEEKLVRTILKYVEEAAK	13800
E92A (designed binder) SMEEEVEKAAKEYEKKKKEAIEKHLEKLKAKDKEAAERFLKELEEAAKEYAKDEAKTMSEEEAKRRAKKYKEKVLLSELSEEEQKEIKEAEAKLVRTILKYVEEAAK	12500
K64Y (designed binder) SMEEEVEKAAKEYEKKKKEAIEKHLEKLKAKDKEAAERFLKELEEAAKEYAKDEAKTMSEEEAYRRAKKYKEKVLLSELSEEEQKEIKEAEEKLVRTILKYVEEAAK	446

Binder	apparent Kd (screen) [pM]
Y13F (designed binder) SMEEEVEKAAKEFEKKKKEAIEKHLEKLKAKDKEAAERFLKELEEAAKEYAKDEAKTMSEEEAKRRAKKYKEKVLLSELSEEEQKEIKEAEEKLVRTILKYVEEAAK	446
K27V (designed binder) SMEEEVEKAAKEYEKKKKEAIEKHLEVLKAKDKEAAERFLKELEEAAKEYAKDEAKTMSEEEAKRRAKKYKEKVLLSELSEEEQKEIKEAEEKLVRTILKYVEEAAK	956
K33H (designed binder) SMEEEVEKAAKEYEKKKKEAIEKHLEKLKAKDHEAAERFLKELEEAAKEYAKDEAKTMSEEEAKRRAKKYKEKVLLSELSEEEQKEIKEAEEKLVRTILKYVEEAAK	446
A35C (designed binder) SMEEEVEKAAKEYEKKKKEAIEKHLEKLKAKDKECAERFLKELEEAAKEYAKDEAKTMSEEEAKRRAKKYKEKVLLSELSEEEQKEIKEAEEKLVRTILKYVEEAAK	1690
L28G (designed binder) SMEEEVEKAAKEYEKKKKEAIEKHLEKGKAKDKEAAERFLKELEEAAKEYAKDEAKTMSEEEAKRRAKKYKEKVLLSELSEEEQKEIKEAEEKLVRTILKYVEEAAK	1400
M2R (designed binder) SREEEVEKAAKEYEKKKKEAIEKHLEKLKAKDKEAAERFLKELEEAAKEYAKDEAKTMSEEEAKRRAKKYKEKVLLSELSEEEQKEIKEAEEKLVRTILKYVEEAAK	539
M2K (designed binder) SKEEEVEKAAKEYEKKKKEAIEKHLEKLKAKDKEAAERFLKELEEAAKEYAKDEAKTMSEEEAKRRAKKYKEKVLLSELSEEEQKEIKEAEEKLVRTILKYVEEAAK	490
D32C (designed binder) SMEEEVEKAAKEYEKKKKEAIEKHLEKLKAKCKEAAERFLKELEEAAKEYAKDEAKTMSEEEAKRRAKKYKEKVLLSELSEEEQKEIKEAEEKLVRTILKYVEEAAK	3000
I21A (designed binder) SMEEEVEKAAKEYEKKKKEAAEKHLEKLKAKDKEAAERFLKELEEAAKEYAKDEAKTMSEEEAKRRAKKYKEKVLLSELSEEEQKEIKEAEEKLVRTILKYVEEAAK	653
K93S (designed binder) SMEEEVEKAAKEYEKKKKEAIEKHLEKLKAKDKEAAERFLKELEEAAKEYAKDEAKTMSEEEAKRRAKKYKEKVLLSELSEEEQKEIKEAEESLVRTILKYVEEAAK	653
K100I (designed binder) SMEEEVEKAAKEYEKKKKEAIEKHLEKLKAKDKEAAERFLKELEEAAKEYAKDEAKTMSEEEAKRRAKKYKEKVLLSELSEEEQKEIKEAEEKLVRTILIYVEEAAK	1400
E3M (designed binder) SMMEEVEKAAKEYEKKKKEAIEKHLEKLKAKDKEAAERFLKELEEAAKEYAKDEAKTMSEEEAKRRAKKYKEKVLLSELSEEEQKEIKEAEEKLVRTILKYVEEAAK	10400
K18H (designed binder) SMEEEVEKAAKEYEKKKHEAIEKHLEKLKAKDKEAAERFLKELEEAAKEYAKDEAKTMSEEEAKRRAKKYKEKVLLSELSEEEQKEIKEAEEKLVRTILKYVEEAAK	1270
E19Y (designed binder) SMEEEVEKAAKEYEKKKKYAIEKHLEKLKAKDKEAAERFLKELEEAAKEYAKDEAKTMSEEEAKRRAKKYKEKVLLSELSEEEQKEIKEAEEKLVRTILKYVEEAAK	1540
Q84S (designed binder) SMEEEVEKAAKEYEKKKKEAIEKHLEKLKAKDKEAAERFLKELEEAAKEYAKDEAKTMSEEEAKRRAKKYKEKVLLSELSEEESKEIKEAEEKLVRTILKYVEEAAK	11400
K11Y (designed binder) SMEEEVEKAAYEYEKKKKEAIEKHLEKLKAKDKEAAERFLKELEEAAKEYAKDEAKTMSEEEAKRRAKKYKEKVLLSELSEEEQKEIKEAEEKLVRTILKYVEEAAK	490
